Measurements as given in US20140087995A1 (published 2014).
Values belong to the binder of their own block, whether it stands above or below them. Numbered stars: 1 amine (or outer) side, 2 acyl side, 3 side chain; on linkers, the order of the positions; unused ones are H or OH. Bridge positions count the residues as written; N and C are the ends. Side chains are listed from the residue outwards. Ends that are not written are not given here. * marks the point of attachment. C20 diacid = O=C(O)CCCCCCCCCCCCCCCCCCC(=O)*; γGlu = O=C(O)[C@H](CCC(=O)[*:2])N[*:1]; AEEA = NCCOCCOCC(=O)O

Assays:
[1] = molecular target: T1, human calcitonin receptor (human, UniProt P30988 25-474); assay: cell-based or functional assay
T1 sequence (looked up): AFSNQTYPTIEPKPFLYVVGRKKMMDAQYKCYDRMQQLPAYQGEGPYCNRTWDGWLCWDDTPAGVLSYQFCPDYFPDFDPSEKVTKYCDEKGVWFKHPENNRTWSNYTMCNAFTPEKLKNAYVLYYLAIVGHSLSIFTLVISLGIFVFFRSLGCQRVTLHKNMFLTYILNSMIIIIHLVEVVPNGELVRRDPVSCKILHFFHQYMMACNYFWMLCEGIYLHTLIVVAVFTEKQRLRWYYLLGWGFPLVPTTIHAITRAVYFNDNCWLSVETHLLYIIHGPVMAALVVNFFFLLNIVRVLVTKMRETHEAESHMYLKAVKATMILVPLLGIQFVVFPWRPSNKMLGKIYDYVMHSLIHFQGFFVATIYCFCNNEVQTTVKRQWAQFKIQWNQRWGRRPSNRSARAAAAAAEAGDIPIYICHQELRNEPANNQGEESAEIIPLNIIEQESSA

[2] = molecular target: T2, human calcitonin receptor (human, UniProt P30988 25-474); assay: ratio of IC50 at human calcitonin receptor to IC50 at human amylin receptor (SPA competition assays)
T2 construct: whole, on cells; also called hCTR; hCT
T2 sequence (looked up): T1 sequence (looked up)
Summary of the method: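 Membranes (35 ng/μL final) + SPA beads, 50 mM Hepes pH 7.4 buffer with 1 mM CaCl2, 5 mM MgCl₂, 0.1% OA, 0.02% Tween20; 120 min, 25° C, shaking; centrifuged, counted; IC₅₀ by one-site binding competition.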

[3] = molecular target: T2, human calcitonin receptor; assay: SPA competition against 125I-calcitonin, membranes of BHK cells with human calcitonin receptor (Assay VII)
Summary of the method: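 BHK hCTR membranes 35 ng/μL + SPA beads 0.05 mg/well; buffer 50 mM Hepes pH 7.4, 1 mM CaCl2, 5 mM MgCl₂, 0.1% OA, 0.02% Tween20. 120 min, 25° C., shaking. Scintillation count; IC50 by one-site binding competition.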

- hCTR funct. EC50 (CRE luciferase reporter, BHK cells) [1]: 0.07 nM
B1: N^α1-[(4S)-4-carboxy-4-(19-carboxynonadecanoylamino)butanoyl]-[Glu14,Arg17,Pro21,Pro25,Pro28,Pro29,Pro37]-h-amylin (peptide)
peptide: {C20 diacid-γGlu}-KCNTATCATQRLAEFLRHSSPNFGPILPPTNVGSNTP-NH2
modifications: disulfide 2-7
SMILES: CC[C@H](C)[C@H](NC(=O)[C@@H]1CCCN1C(=O)CNC(=O)[C@H](Cc1ccccc1)NC(=O)[C@H](CC(N)=O)NC(=O)[C@@H]1CCCN1C(=O)[C@H](CO)NC(=O)[C@H](CO)NC(=O)[C@H](Cc1c[nH]cn1)NC(=O)[C@H](CCCNC(=N)N)NC(=O)[C@H](CC(C)C)NC(=O)[C@H](Cc1ccccc1)NC(=O)[C@H](CCC(=O)O)NC(=O)[C@H](C)NC(=O)[C@H](CC(C)C)NC(=O)[C@H](CCCNC(=N)N)NC(=O)[C@H](CCC(N)=O)NC(=O)[C@@H](NC(=O)[C@H](C)NC(=O)[C@@H]1CSSC[C@H](NC(=O)[C@H](CCCCN)NC(=O)CC[C@H](NC(=O)CCCCCCCCCCCCCCCCCCC(=O)O)C(=O)O)C(=O)N[C@@H](CC(N)=O)C(=O)N[C@@H]([C@@H](C)O)C(=O)N[C@@H](C)C(=O)N[C@@H]([C@@H](C)O)C(=O)N1)[C@@H](C)O)C(=O)N[C@@H](CC(C)C)C(=O)N1CCC[C@H]1C(=O)N1CCC[C@H]1C(=O)N[C@H](C(=O)N[C@@H](CC(N)=O)C(=O)N[C@H](C(=O)NCC(=O)N[C@@H](CO)C(=O)N[C@@H](CC(N)=O)C(=O)N[C@H](C(=O)N1CCC[C@H]1C(N)=O)[C@@H](C)O)C(C)C)[C@@H](C)O
notes: Synthetic acylated analogue of human amylin; also called compound 4

- Ratio hCT/hAmylin binding [2]: 45.3
- IC50 [3]: 3.44 nM
B2: N^ε1-[(4S)-4-carboxy-4-[[(4S)-4-carboxy-4-(19-carboxynonadecanoylamino)butanoyl]amino]butanoyl]-[Ser14,Arg17,Pro21,Pro27,Pro34,Glu35]-h-amylin (peptide)
peptide: K([γGlu-γGlu-C20 diacid])CNTATCATQRLASFLRHSSPNFGAIPSSTNVGPETY-NH2
modifications: disulfide 2-7; N-terminus assumed
SMILES: CC[C@H](C)[C@H](NC(=O)[C@H](C)NC(=O)CNC(=O)[C@H](Cc1ccccc1)NC(=O)[C@H](CC(N)=O)NC(=O)[C@@H]1CCCN1C(=O)[C@H](CO)NC(=O)[C@H](CO)NC(=O)[C@H](Cc1c[nH]cn1)NC(=O)[C@H](CCCNC(=N)N)NC(=O)[C@H](CC(C)C)NC(=O)[C@H](Cc1ccccc1)NC(=O)[C@H](CO)NC(=O)[C@H](C)NC(=O)[C@H](CC(C)C)NC(=O)[C@H](CCCNC(=N)N)NC(=O)[C@H](CCC(N)=O)NC(=O)[C@@H](NC(=O)[C@H](C)NC(=O)[C@@H]1CSSC[C@H](NC(=O)[C@@H](N)CCCCNC(=O)CC[C@H](NC(=O)CC[C@H](NC(=O)CCCCCCCCCCCCCCCCCCC(=O)O)C(=O)O)C(=O)O)C(=O)N[C@@H](CC(N)=O)C(=O)N[C@@H]([C@@H](C)O)C(=O)N[C@@H](C)C(=O)N[C@@H]([C@@H](C)O)C(=O)N1)[C@@H](C)O)C(=O)N1CCC[C@H]1C(=O)N[C@@H](CO)C(=O)N[C@@H](CO)C(=O)N[C@H](C(=O)N[C@@H](CC(N)=O)C(=O)N[C@H](C(=O)NCC(=O)N1CCC[C@H]1C(=O)N[C@@H](CCC(=O)O)C(=O)N[C@H](C(=O)N[C@@H](Cc1ccc(O)cc1)C(N)=O)[C@@H](C)O)C(C)C)[C@@H](C)O
notes: also called compound 120

- hCTR funct. EC50 (CRE luciferase reporter, BHK cells) [1]: 0.285 nM
B3: N^α1-[2-[2-[2-[[2-[2-[2-[[(4S)-4-carboxy-4-(19-carboxynonadecanoylamino)butanoyl]amino]ethoxy]ethoxy]acetyl]amino]ethoxy]ethoxy]acetyl]-[Glu14,Arg17,Pro21,Pro27 … (peptide)
peptide: {C20 diacid-γGlu-AEEA-AEEA}-KCNTATCATQRLAEFLRHSSPNFGAIPSSTNVGSNTP-NH2
modifications: disulfide 2-7
SMILES: CC[C@H](C)[C@H](NC(=O)[C@H](C)NC(=O)CNC(=O)[C@H](Cc1ccccc1)NC(=O)[C@H](CC(N)=O)NC(=O)[C@@H]1CCCN1C(=O)[C@H](CO)NC(=O)[C@H](CO)NC(=O)[C@H](Cc1c[nH]cn1)NC(=O)[C@H](CCCNC(=N)N)NC(=O)[C@H](CC(C)C)NC(=O)[C@H](Cc1ccccc1)NC(=O)[C@H](CCC(=O)O)NC(=O)[C@H](C)NC(=O)[C@H](CC(C)C)NC(=O)[C@H](CCCNC(=N)N)NC(=O)[C@H](CCC(N)=O)NC(=O)[C@@H](NC(=O)[C@H](C)NC(=O)[C@@H]1CSSC[C@H](NC(=O)[C@H](CCCCN)NC(=O)COCCOCCNC(=O)COCCOCCNC(=O)CC[C@H](NC(=O)CCCCCCCCCCCCCCCCCCC(=O)O)C(=O)O)C(=O)N[C@@H](CC(N)=O)C(=O)N[C@@H]([C@@H](C)O)C(=O)N[C@@H](C)C(=O)N[C@@H]([C@@H](C)O)C(=O)N1)[C@@H](C)O)C(=O)N1CCC[C@H]1C(=O)N[C@@H](CO)C(=O)N[C@@H](CO)C(=O)N[C@H](C(=O)N[C@@H](CC(N)=O)C(=O)N[C@H](C(=O)NCC(=O)N[C@@H](CO)C(=O)N[C@@H](CC(N)=O)C(=O)N[C@H](C(=O)N1CCC[C@H]1C(N)=O)[C@@H](C)O)C(C)C)[C@@H](C)O
notes: Synthetic acylated analogue of human amylin; also called compound 20

- hCTR funct. EC50 (CRE luciferase reporter, BHK cells) [1]: 0.07 nM
B4: N^α1-[(4S)-4-carboxy-4-(19-carboxynonadecanoylamino)butanoyl]-[Asp14,Arg17,Pro21,Pro27,Pro37]-h-amylin (peptide)
peptide: {C20 diacid-γGlu}-KCNTATCATQRLADFLRHSSPNFGAIPSSTNVGSNTP-NH2
modifications: disulfide 2-7
SMILES: CC[C@H](C)[C@H](NC(=O)[C@H](C)NC(=O)CNC(=O)[C@H](Cc1ccccc1)NC(=O)[C@H](CC(N)=O)NC(=O)[C@@H]1CCCN1C(=O)[C@H](CO)NC(=O)[C@H](CO)NC(=O)[C@H](Cc1c[nH]cn1)NC(=O)[C@H](CCCNC(=N)N)NC(=O)[C@H](CC(C)C)NC(=O)[C@H](Cc1ccccc1)NC(=O)[C@H](CC(=O)O)NC(=O)[C@H](C)NC(=O)[C@H](CC(C)C)NC(=O)[C@H](CCCNC(=N)N)NC(=O)[C@H](CCC(N)=O)NC(=O)[C@@H](NC(=O)[C@H](C)NC(=O)[C@@H]1CSSC[C@H](NC(=O)[C@H](CCCCN)NC(=O)CC[C@H](NC(=O)CCCCCCCCCCCCCCCCCCC(=O)O)C(=O)O)C(=O)N[C@@H](CC(N)=O)C(=O)N[C@@H]([C@@H](C)O)C(=O)N[C@@H](C)C(=O)N[C@@H]([C@@H](C)O)C(=O)N1)[C@@H](C)O)C(=O)N1CCC[C@H]1C(=O)N[C@@H](CO)C(=O)N[C@@H](CO)C(=O)N[C@H](C(=O)N[C@@H](CC(N)=O)C(=O)N[C@H](C(=O)NCC(=O)N[C@@H](CO)C(=O)N[C@@H](CC(N)=O)C(=O)N[C@H](C(=O)N1CCC[C@H]1C(N)=O)[C@@H](C)O)C(C)C)[C@@H](C)O
notes: Synthetic acylated analogue of human amylin; also called compound 10

- hCTR funct. EC50 (CRE luciferase reporter, BHK cells) [1]: 0.16 nM
B5: N^α1-[(4S)-4-carboxy-4-(19-carboxynonadecanoylamino)butanoyl]-[Glu14,Arg17,Pro21,Pro26,Pro37]-h-amylin (peptide)
peptide: {C20 diacid-γGlu}-KCNTATCATQRLAEFLRHSSPNFGAPLSSTNVGSNTP-NH2
modifications: disulfide 2-7
SMILES: CC(C)C[C@H](NC(=O)[C@H](CCCNC(=N)N)NC(=O)[C@H](CCC(N)=O)NC(=O)[C@@H](NC(=O)[C@H](C)NC(=O)[C@@H]1CSSC[C@H](NC(=O)[C@H](CCCCN)NC(=O)CC[C@H](NC(=O)CCCCCCCCCCCCCCCCCCC(=O)O)C(=O)O)C(=O)N[C@@H](CC(N)=O)C(=O)N[C@@H]([C@@H](C)O)C(=O)N[C@@H](C)C(=O)N[C@@H]([C@@H](C)O)C(=O)N1)[C@@H](C)O)C(=O)N[C@@H](C)C(=O)N[C@@H](CCC(=O)O)C(=O)N[C@@H](Cc1ccccc1)C(=O)N[C@@H](CC(C)C)C(=O)N[C@@H](CCCNC(=N)N)C(=O)N[C@@H](Cc1c[nH]cn1)C(=O)N[C@@H](CO)C(=O)N[C@@H](CO)C(=O)N1CCC[C@H]1C(=O)N[C@@H](CC(N)=O)C(=O)N[C@@H](Cc1ccccc1)C(=O)NCC(=O)N[C@@H](C)C(=O)N1CCC[C@H]1C(=O)N[C@@H](CC(C)C)C(=O)N[C@@H](CO)C(=O)N[C@@H](CO)C(=O)N[C@H](C(=O)N[C@@H](CC(N)=O)C(=O)N[C@H](C(=O)NCC(=O)N[C@@H](CO)C(=O)N[C@@H](CC(N)=O)C(=O)N[C@H](C(=O)N1CCC[C@H]1C(N)=O)[C@@H](C)O)C(C)C)[C@@H](C)O
notes: Synthetic acylated analogue of human amylin; also called compound 5
